The source of these data is PMC2715020, “Identification, functional characterization and developmental regulation of sesquiterpene synthases from sunflower capitate glandular trichomes” (BMC Plant Biology, 2009).

The target of data set [1] is T1, HaCS (HaTPS2) (Helianthus annuus, UniProt Q4U3F6).
T1 sequence (Q4U3F6 1-555): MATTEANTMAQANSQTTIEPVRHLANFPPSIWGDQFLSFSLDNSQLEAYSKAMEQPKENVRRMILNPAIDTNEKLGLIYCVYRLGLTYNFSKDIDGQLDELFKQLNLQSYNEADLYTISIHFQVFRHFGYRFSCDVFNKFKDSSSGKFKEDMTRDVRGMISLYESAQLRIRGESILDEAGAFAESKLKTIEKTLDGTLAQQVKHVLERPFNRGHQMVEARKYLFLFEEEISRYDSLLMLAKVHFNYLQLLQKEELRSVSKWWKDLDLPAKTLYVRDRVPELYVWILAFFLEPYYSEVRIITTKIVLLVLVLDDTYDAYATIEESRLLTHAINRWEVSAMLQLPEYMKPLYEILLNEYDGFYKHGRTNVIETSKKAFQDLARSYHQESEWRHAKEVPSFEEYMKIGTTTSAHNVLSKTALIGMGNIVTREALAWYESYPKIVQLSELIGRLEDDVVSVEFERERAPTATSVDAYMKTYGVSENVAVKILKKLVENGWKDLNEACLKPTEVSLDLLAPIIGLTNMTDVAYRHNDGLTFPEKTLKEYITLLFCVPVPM
Put plainly: GC-MS of dodecane overlay, expression in S. cerevisiae EPY300. The data set is classed as cell-based. More on the design: gene CS. The conditions noted are these: FDP-overproducing yeast; HaCS and thioredoxin-HaCS.

The target in data set [2] is T1, HaCS (HaTPS2). Put plainly: GC-MS of products after incubation with FDP. The format is biochemical. The following applies: thioredoxin fusion, 50 μM FDP, MgCl2 and MnCl2, pH 7.0, 30°C. More on the design: gene CS; N-terminal thioredoxin fusion (E. coli, Ni-NTA; also S. cerevisiae EPY300), and unfused in yeast.
Substrate in the data set “purified protein”: CC(C)=CCC/C(C)=C/CC/C(C)=C/CO[P@@](=O)(O)OP(=O)(O)O
Put plainly: purified protein. The following applies: 15 mM MOPSO, 10 mM MgCl2, 1 mM MnCl2, pH 7.0 (assay buffer), 30°C, FPP 0.125 to 30 μM. The format is biochemical, Helianthus annuus.

What is called Km is the substrate concentration at which the rate is half of its maximum.

Turning to `CC1=C[C@@H]2C(=C(C)CC[C@H]2C(C)C)CC1` [δ-cadinene], the “GC-MS of dodecane overlay, expression in S. cerevisiae EPY300” value on HaCS (HaTPS2) [1] was “One of the two main products was identified as δ-cadinene”.

With `CC(C)=CCC/C(C)=C/CC/C(C)=C/COP(=O)(O)OP(=O)(O)O` [FPP], on HaCS (HaTPS2) [2], the “GC-MS of products after incubation with FDP” value is given as “in vitro enzyme assay products with substrate FDP showed the presence of the parental mass”.

B1: HaGAS2 (HaTPS1b; native, thioredoxin removed) (Helianthus annuus) (protein)
chain: MAAVGASATLLTNTKSAEEPVRPVANFPPSVWGDLFLSFSLDNSMMEEYAEAMEEPKGQVRKLILDPTMDSNKKLSLIYTVHRLGLTYMFFKEIEGQLDRLFKEFNLEDYVEVDLYTISTNFQAFRHLGYKLSCDVFNKFKNYDSNTFKESITSDVRGMLGLYESAQLRLKGEKILDEASAFTETKLKSLVKTLEGSLAQQVKQSLKRPFHQGMPMVEARLYFSNYQEECSRHDSLLKLAKLHFNYLQLQQKEELRIVSQWWKDMRFQETTPYIRDRVPEIYLWILGLYFEPRYSLARIIATKITLFLVVLDDTYDAYATIEEVRLLTDAINRWDIGAMSQIPEYIRPFYKILLDEYAELEKQLAKEGRANSVIASKEAFQDIARGYLEEAEWTNSGYVASFPEYMKNGLITSAYNVISKSALVGMGEIVSEDALAWYESHPQILQASELISRLQDDVMTYQFERERGQSATGVDAYIKTYGVSEKEAIDELKKMIENAWKEINEGCLKPREVSMDLLAPILNLARMIDVVYRYDDGFTFPGKTLKEYITLLFVGSSPM
notes: full length, 559 residues; expressed in E. coli from pET-32 EK/LIC, thioredoxin part removed by enterokinase
Take B1: in “purified protein”, the Km stood at 0.74 µM.

B2: HaGAS1 (HaTPS1a; native, thioredoxin removed) (Helianthus annuus) (protein)
chain: MAAVGASATPLTNTKSTAEPVRPVANFPPSVWGDLFLSFSLDKSIMEEYAEAMEEPKEQVRRLILDPTMDSNKKLSLIYTVHRLGLTYMFLKEIEAQLDRLFKEFNLEDYVELDLYTISINFQAFRHLGYKLPCDVFNKFKNDDSTTFKESITGDVRGMLGLYESAQLRLKGENILDEASAFAETKLKSLVNTLEGSLAQQVKQSLRRPFHQGMPMVEARLYFSNYQEECSAHDSILKLAKLHFNYLQLQQKEELRIVSQWWKDMRFQETTPYIRDRVPEIYLWILGLYFEPRYSLARIIATKITLFLVVLDDTYDAYATIEEIRLLTDAINRWDISAMNQIPEYIRPFYKILLDEYAELEKQLAKEGRANSVIASKEAFQDIARGYLEEAEWTNSGYVASFPEYMKNGLITSAYNVISKSALVGMGEIVSEDALVWYESHPQILQASELISRLQDDVMTYQFERERGQSATGVDSYIKTYGVSEKVAIDELKKMIENAWKEINEGCLKPREVSMDLLAPILNLARMIDVVYRYDDGFTFPGKTLKEYITLLFVGSSPM
notes: expressed in E. coli from pET-32 EK/LIC, thioredoxin part removed by enterokinase
On to B2, for which the Km in “purified protein” amounted to 0.82 µM.

B3: thioredoxin-HaGAS1 fusion protein (Helianthus annuus) (protein)
chain: B2 chain
notes: full length (559 residues) with uncleaved N-terminal thioredoxin and 6x-His tag (pET-32 EK/LIC), E. coli, Ni-NTA purified
For B3, the Km in “purified protein” was 1.06 µM.
